Experimental data from patent US20070293656A1, “COLLAGEN BINDING PEPTIDES” (Epix Pharmaceuticals, Inc., priority 2005, published 2007).
Where two headings read alike, the source gives them in different places. Bridge positions count the residues as written; N and C are the ends. Square brackets hold non-standard residues; d marks the D form. Primed or numbered codes have the meaning given here. Side chains are listed from the residue outwards. Ends that are not written are not given here. * marks the point of attachment. GdT″ = Gd-DTPA chelate conjugated through a thiourea; Dip = N[C@H](C(=O)O)C(c1ccccc1)c1ccccc1; Orn = NCCC[C@H](N)C(=O)O; Gd^T″ = GdDTPA-thiourea; Cbz = O=C(OCc1ccccc1)*

B1: Comp ID 968 (peptide)
peptide: {GdT″}-GK([Gly-GdT″])WHCTTYFPHH[Dip]CLYG
modifications: disulfide 5-14; not fully specified (C-terminus)
B2: Comp ID 967 (peptide)
peptide: {Gd^T″}-GK([Gly-Gd^T″])WHCTTYFPHHYCL[Dip]G
modifications: disulfide 5-14 (inferred); not fully specified (C-terminus); printed as Gd^T-G-K(G.Gd^T)-WHCTTYFPHHYCL-Dip-G
B3: SEQ ID NO: 154 (peptide)
peptide: YH[dA]CYQAGCWIW
modifications: disulfide 4-9 (inferred)
B4: Comp ID 878 (peptide)
peptide: GQWHCTTRFPHAYCLYG
modifications: not fully specified; Gd^T-GQWHCTTRFPHAYCLYG
B5: Comp ID 885 (peptide)
peptide: GQWHCTTDFPHHYCLYG
modifications: not fully specified; Gd^T-GQWHCTTD-F(4-NH2)(Gd^T)-PHHYCLYG
B6: Comp ID 936 (peptide)
peptide: GQWHCTDRFPHHYCLYG
modifications: not fully specified; Gd^T-GQWHCTDRFPHHYCLYG
B7: Comp ID 941 (peptide)
peptide: Cbz-GQWHCT[Orn](Gd^T″)RFPHHYCLYG
modifications: disulfide 5-14; not fully specified (C-terminus); printed as cbz-GQWHCT-Orn(Gd^T)-RFPHHYCLYG
B8: SEQ ID NO: 153 (peptide)
peptide: Y[dH]ACYQAGCWIW
modifications: disulfide 4-9 (inferred)
B9: SEQ ID NO: 132 (peptide)
peptide: YAACYQAGCWIW
modifications: disulfide 4-9 (inferred)
B10: SEQ ID NO: 138 (peptide)
peptide: YHACYQAGCWIA
modifications: disulfide 4-9 (inferred)
B11: Comp ID 906 (peptide)
peptide: GQWHCTTRFPHHYXLYG
modifications: not fully specified; Gd^T-GQWHCTTRFPHHY-Pen-LYG
B12: SEQ ID NO: 131 (peptide)
peptide: AHACYQAGCWIW
modifications: disulfide 4-9 (inferred)
B13: SEQ ID NO: 133 (peptide)
peptide: YHACAQAGCWIW
modifications: disulfide 4-9 (inferred)
B14: SEQ ID NO: 134 (peptide)
peptide: YHACYAAGCWIW
modifications: disulfide 4-9 (inferred)
B15: SEQ ID NO: 135 (peptide)
peptide: YHACYQAACWIW
modifications: disulfide 4-9 (inferred)
B16: SEQ ID NO: 137 (peptide)
peptide: YHACYQAGCWAW
modifications: disulfide 4-9 (inferred)
B17: SEQ ID NO: 136 (peptide)
peptide: YHACYQAGCAIW
modifications: disulfide 4-9 (inferred)

What was measured:
[1] = molecular target: T1, human collagen type I (Homo sapiens, UniProt P02452+P08123); experiment: Dried collagen assay (DCA): percent binding to dried human collagen; details: 5 μM peptide in PBS, pH 7.4, 2 hours at room temperature
T1 construct: Acid soluble human collagen extracted from placenta; purchased Sigma C7774 (lot #083K375); host or cells: human placenta
T1 sequence (P02452 162-1218 limits assumed): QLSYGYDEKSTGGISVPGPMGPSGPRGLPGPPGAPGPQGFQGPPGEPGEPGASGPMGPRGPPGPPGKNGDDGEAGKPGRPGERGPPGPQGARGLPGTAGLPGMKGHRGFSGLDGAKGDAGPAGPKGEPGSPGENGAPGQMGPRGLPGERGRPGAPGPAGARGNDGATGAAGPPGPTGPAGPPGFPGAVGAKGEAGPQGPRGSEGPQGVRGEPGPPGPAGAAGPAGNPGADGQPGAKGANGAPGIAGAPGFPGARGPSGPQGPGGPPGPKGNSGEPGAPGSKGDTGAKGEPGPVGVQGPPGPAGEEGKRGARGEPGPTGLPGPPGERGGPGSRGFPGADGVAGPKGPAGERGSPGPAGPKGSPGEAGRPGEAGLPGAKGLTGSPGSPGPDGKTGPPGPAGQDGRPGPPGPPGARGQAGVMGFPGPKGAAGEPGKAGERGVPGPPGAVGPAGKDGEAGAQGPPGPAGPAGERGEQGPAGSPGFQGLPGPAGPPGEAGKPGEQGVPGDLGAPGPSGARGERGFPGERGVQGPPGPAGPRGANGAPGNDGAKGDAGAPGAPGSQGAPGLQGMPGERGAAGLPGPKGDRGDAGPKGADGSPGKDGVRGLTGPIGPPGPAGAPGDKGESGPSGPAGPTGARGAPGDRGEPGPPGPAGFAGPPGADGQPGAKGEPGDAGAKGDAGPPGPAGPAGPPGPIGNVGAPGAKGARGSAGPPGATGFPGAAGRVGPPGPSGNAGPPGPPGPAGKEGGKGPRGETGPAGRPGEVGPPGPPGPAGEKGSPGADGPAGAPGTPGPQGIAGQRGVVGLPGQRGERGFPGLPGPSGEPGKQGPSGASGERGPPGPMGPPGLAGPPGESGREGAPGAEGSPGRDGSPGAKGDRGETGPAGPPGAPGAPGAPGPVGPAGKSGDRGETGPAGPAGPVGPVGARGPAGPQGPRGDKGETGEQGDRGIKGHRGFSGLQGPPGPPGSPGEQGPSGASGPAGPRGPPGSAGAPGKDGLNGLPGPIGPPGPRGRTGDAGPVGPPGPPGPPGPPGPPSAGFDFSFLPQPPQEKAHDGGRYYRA
T1 sequence (P08123 80-1119 limits assumed): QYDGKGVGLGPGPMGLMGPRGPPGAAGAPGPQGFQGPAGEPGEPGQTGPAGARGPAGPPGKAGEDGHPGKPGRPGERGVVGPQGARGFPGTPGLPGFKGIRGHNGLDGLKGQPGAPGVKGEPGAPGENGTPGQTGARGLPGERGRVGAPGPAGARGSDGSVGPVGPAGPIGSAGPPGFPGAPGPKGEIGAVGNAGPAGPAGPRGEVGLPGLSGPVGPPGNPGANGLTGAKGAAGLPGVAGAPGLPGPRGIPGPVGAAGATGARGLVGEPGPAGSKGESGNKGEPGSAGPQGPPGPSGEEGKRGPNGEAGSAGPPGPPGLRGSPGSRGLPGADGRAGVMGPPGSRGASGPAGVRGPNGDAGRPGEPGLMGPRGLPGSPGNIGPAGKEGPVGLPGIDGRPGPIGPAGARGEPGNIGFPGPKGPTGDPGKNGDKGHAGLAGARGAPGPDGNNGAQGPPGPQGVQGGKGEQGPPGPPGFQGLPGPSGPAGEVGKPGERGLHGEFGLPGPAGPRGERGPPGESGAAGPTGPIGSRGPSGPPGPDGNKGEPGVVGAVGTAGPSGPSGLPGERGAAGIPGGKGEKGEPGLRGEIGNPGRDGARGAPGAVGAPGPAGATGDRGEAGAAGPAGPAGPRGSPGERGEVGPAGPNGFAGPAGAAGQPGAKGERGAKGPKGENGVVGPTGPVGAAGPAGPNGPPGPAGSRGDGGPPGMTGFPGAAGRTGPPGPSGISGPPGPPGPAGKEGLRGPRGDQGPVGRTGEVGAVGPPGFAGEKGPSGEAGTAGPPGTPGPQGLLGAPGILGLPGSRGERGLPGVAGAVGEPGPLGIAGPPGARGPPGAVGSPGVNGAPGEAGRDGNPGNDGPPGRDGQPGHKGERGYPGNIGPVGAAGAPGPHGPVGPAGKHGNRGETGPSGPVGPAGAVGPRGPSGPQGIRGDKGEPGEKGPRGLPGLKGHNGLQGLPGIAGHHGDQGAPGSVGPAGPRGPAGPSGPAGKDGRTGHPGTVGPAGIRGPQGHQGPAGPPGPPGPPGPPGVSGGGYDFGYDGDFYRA
Experimental: Acid soluble human collagen extracted from placenta (Sigma, cat #C7774, lot #083K375) is dissolved in 15 mM HCl (3.5 mg/ml) by vortexing and gently shaking for 3-4 hours at 4° C. The acid soluble collagen is […] against PBS, pH 7.4 (three buffer exchanges are used). The […] protein concentration is determined by the BCA method (Pierce, Cat #23225) using bovine collagen (Vitrogen, cat #FXP-019) as a reference standard. Percent gelation (fibril formation) of the collagen is determined by incubating 10 μM collagen (3.3 mg/ml) at 37° C. for 6 hours. A typical percent gelation is 60%.
(§1) An additional 90 μL is reserved in a HPLC glass vial as a measure of the total concentration.

[2] = molecular target: T2, rat collagen type I (Rattus norvegicus, UniProt P02454+P02466); experiment: Dried collagen assay (DCA): percent binding to dried rat collagen; details: 5 μM peptide in PBS, pH 7.4, 2 hours at room temperature
T2 construct: Rat collagen (acid soluble, type I, rat tail); purchased Upstate USA, Inc 08-115; host or cells: rat tail
T2 sequence (P02454 152-1207 limits assumed): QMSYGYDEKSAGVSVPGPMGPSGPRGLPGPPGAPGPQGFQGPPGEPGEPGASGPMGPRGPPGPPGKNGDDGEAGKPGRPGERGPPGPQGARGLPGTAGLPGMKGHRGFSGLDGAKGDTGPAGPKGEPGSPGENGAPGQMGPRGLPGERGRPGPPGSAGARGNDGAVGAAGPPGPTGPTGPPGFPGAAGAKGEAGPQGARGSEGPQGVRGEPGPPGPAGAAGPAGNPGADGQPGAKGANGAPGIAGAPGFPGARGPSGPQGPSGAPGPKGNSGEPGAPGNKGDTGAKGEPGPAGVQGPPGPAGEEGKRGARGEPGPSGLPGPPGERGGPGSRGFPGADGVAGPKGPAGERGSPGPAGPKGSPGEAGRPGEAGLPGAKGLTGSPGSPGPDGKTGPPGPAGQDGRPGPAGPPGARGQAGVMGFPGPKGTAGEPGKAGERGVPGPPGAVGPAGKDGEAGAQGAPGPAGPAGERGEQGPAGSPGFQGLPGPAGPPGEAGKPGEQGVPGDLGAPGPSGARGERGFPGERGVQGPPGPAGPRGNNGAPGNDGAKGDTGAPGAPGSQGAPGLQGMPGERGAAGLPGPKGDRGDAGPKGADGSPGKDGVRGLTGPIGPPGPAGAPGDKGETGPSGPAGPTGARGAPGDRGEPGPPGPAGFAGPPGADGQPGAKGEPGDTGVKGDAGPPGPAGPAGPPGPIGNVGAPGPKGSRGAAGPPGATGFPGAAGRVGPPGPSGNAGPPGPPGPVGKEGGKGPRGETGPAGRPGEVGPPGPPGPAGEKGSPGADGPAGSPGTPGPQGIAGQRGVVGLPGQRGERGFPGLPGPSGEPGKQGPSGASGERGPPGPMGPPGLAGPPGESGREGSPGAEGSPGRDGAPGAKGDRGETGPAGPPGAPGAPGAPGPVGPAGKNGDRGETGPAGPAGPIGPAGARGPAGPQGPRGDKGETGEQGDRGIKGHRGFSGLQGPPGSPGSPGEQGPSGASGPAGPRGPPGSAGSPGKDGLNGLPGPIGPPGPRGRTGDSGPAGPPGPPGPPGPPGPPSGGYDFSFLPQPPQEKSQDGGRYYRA
T2 sequence (P02466 86-1125 limits assumed): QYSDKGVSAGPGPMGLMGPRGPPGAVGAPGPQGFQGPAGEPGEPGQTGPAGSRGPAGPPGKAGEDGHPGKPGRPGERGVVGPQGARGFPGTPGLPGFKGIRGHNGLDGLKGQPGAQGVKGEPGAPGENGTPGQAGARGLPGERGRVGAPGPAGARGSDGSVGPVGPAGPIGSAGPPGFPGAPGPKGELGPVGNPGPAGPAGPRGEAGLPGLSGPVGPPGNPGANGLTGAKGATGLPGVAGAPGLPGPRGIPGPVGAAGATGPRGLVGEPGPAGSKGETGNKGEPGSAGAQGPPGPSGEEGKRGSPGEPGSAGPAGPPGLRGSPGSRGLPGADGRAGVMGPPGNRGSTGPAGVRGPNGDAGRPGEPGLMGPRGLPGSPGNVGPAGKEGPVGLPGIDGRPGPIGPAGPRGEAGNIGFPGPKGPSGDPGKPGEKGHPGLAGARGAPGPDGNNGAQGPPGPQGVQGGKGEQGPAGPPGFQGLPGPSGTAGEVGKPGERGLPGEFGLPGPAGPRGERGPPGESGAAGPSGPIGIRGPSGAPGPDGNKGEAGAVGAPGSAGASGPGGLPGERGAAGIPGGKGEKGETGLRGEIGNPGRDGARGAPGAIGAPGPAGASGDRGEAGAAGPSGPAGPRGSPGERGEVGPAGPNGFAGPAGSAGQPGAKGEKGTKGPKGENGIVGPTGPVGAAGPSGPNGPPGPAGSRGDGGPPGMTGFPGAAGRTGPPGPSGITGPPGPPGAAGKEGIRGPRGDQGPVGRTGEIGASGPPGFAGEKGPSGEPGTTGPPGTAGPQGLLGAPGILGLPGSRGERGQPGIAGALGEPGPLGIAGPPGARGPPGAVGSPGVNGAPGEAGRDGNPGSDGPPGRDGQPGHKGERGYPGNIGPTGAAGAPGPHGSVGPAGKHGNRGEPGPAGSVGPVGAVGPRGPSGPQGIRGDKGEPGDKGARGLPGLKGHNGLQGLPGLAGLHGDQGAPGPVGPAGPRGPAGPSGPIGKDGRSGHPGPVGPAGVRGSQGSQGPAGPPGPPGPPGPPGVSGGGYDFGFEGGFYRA
Experimental: Rat collagen (acid soluble, type I, rat tail, Upstate USA, Inc, cat #08-115) is dialyzed against 10 mM Phosphate (NaH2PO4), pH 4.2 with three changes of the dialysis buffer. For the final assay, a 1:10 volume of 10×PBS (100 mM NaH2PO4, 1.5 M NaCl pH 7.4) is added to the collagen solution (final 1×PBS) and incubated at 37° C. for 2 hours. The gelation is typically 90%.
as §1

[3] = molecular target: T3, rat collagen (acid soluble, type I, rat tail, Upstate 08-115) (rat, UniProt P02454 152-1207; P02466 86-1125); experiment: dried collagen assay
T3 construct: also called dried rat collagen; insoluble rat collagen
T3 sequence (P02454 152-1207 limits assumed, chain 1 of 2): as the sequence (P02454 152-1207 limits assumed) above
T3 sequence (P02466 86-1125 limits assumed, chain 2 of 2): as the sequence (P02466 86-1125 limits assumed) above

[4] = molecular target: T4, human collagen type I (acid soluble, extracted from placenta, Sigma C7774) (human, UniProt P02452 162-1218; P08123 80-1119); experiment: dried collagen assay
T4 construct: gelled and dried as a fibril film in the assay; also called dried human collagen; h-Collagen
T4 sequence (P02452 162-1218 limits assumed, chain 1 of 2): as the sequence (P02452 162-1218 limits assumed) above
T4 sequence (P08123 80-1119 limits assumed, chain 2 of 2): as the sequence (P08123 80-1119 limits assumed) above

[5] = molecular target: T3, rat collagen (acid soluble, type I, rat …); experiment: dried collagen assay; remark: listed apart in the source
[6] = molecular target: human collagen type I (acid soluble, extracted from placenta, Sigma C7774) (human) (UniProt P02452); experiment: dried collagen assay
Sequence of human collagen type I (acid soluble, extracted from placenta, Sigma C7774) (human) (P02452 162-1218 limits assumed, chain 1 of 2): as the sequence (P02452 162-1218 limits assumed) above
Sequence of human collagen type I (acid soluble, extracted from placenta, Sigma C7774) (human) (P08123 80-1119 limits assumed, chain 2 of 2, further chain): as the sequence (P08123 80-1119 limits assumed) above

[7] = molecular target: T4, human collagen type I (acid soluble, …); experiment: dried collagen assay; remark: listed apart in the source
[8] = molecular target: T3, rat collagen (acid soluble, type I, rat …); experiment: dried collagen assay; remark: listed apart in the source
[9] = molecular target: rat collagen (acid soluble, type I, rat tail, Upstate 08-115) (rat) (UniProt P02454); experiment: dried collagen assay
Sequence of rat collagen (acid soluble, type I, rat tail, Upstate 08-115) (rat) (P02454 152-1207 limits assumed, chain 1 of 2): as the sequence (P02454 152-1207 limits assumed) above
Sequence of rat collagen (acid soluble, type I, rat tail, Upstate 08-115) (rat) (P02466 86-1125 limits assumed, chain 2 of 2, further chain): as the sequence (P02466 86-1125 limits assumed) above

% bound [3]	% bound [7]	% bound [8]	other results	Molecule
			% Collagen Binding Dried Human [1]: 3%; % Collagen Binding Dried Rat [2]: 2%	168 (QWTC[dS]GDEYTWHCNYE; disulfide 4-13 (inferred)) [compound 168]
64%				B1
4%				B2
			% bound [4]: 24%; % bound [5]: 21%	B3
9%			% bound [6]: 8%	B4
9%				B5
5%				B6
5%			% bound [6]: 8%	B7
			% bound [4]: 0%; % bound [5]: 0%	B8
	53%	37%		B9
	2%	1%		B10
5%				B11
	7%	12%		B12
	4%	5%		B13
	14%	1%		B14
	72%	88%		B15
	4%		% bound [9]: 7%	B16
	2%	2%		B17
